Reference: US20230131339A1, “EPI-X4 BASED PEPTIDES AND DERIVATIVES THEREOF” (Universitaet Ulm, priority 2020, published 2023)
“And” between values parts separate entries of the source, which are not always exact repeats. Equal values may be shown once. Read-outs that look alike come from different tables or passages of the source. Where a SMILES comes first, the peptide text is derived from it. Where no end group is shown, it is not given here. Side-chain parts run from the residue outwards. [ ]: non-standard residue; d: D form. The star is where a group is joined. DOTA = O=C(O)CN1CCN(CC(=O)O)CCN(CC(=O)*)CCN(CC(=O)O)CC1; Palmitoyl = CCCCCCCCCCCCCCCC(=O)*; Glu = glutamate linker

T1: CXC chemokine receptor type 4 (CXCR4) (human, UniProt P61073 1-352)
T1 chain: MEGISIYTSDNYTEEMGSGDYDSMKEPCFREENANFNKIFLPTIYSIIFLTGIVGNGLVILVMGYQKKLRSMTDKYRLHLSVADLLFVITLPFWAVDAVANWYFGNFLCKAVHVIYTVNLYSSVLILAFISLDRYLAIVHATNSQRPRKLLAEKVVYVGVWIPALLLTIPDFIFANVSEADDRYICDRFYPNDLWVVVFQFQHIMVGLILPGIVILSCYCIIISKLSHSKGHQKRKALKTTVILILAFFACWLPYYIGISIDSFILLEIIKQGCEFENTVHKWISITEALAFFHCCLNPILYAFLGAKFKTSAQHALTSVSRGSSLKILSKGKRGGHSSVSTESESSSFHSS

B1: JM#196 (peptide)
peptide: [dM]LRWSRK([Glu-Palmitoyl])-NH2
B2: JM#198 (peptide)
peptide: ILRWSRKLPCVS
modifications: not fully specified (residue 7)
B3: JM#195 (peptide)
peptide: [dL]MRWSRKK-NH2
modifications: not fully specified (residue 8)

Columns and labels:
[1] = Stability of radiolabeled conjugates in buffer (radiochemical purity over time); assay type: physicochemical; settings: NH4-acetate buffer pH 5.2, ethanol, room temperature
Procedure: The stability of ^177Lu/^68Ga-labeled DOTA-conjugated peptides in ammonium acetate buffer (0.4 M, pH 5.2) and sodium acetate buffer (0.2 M, pH 4-4.5) was assessed by determining the radiochemical purity (RCP) of each radiolabeled conjugate at different time points (0, 1, 2, 4, and 24 h for ^177Lu-complexes and at 0, 1 and 2 h for ^68Ga-complexes) at room temperature. For this, an aliquot of labeling solution was stored at room temperature. RP-HPLC injections were consecutively performed at the desired time points.
Radiolysis-induced instability of [^177Lu]Lu-labeled DOTA-conjugated peptides over time was tracked by determining the radiochemical purity (Table 3). Results are means±standard deviation from a minimum of two separate experiments.

[2] = Lipophilicity, shake-flask method (n-octanol/PBS pH 7.4); assay type: physicochemical
Procedure: The hydrophilic/lipophilic character of the ^177Lu/^68Ga-labeled conjugates was determined by the “shake-flask” method. To a pre-saturated solution containing 500 μL of n-octanol and 500 μL of phosphate-buffered saline (PBS) at pH 7.4, 10 μL of 1 picomol ^177Lu/^68Ga-labeled conjugates was added. The solutions were vortexed for 1 h to reach equilibrium and then centrifuged (3000 rpm) for 10 min. Hundred μl of the sample was removed from each phase and measured in a γ-counter. The partition coefficient was calculated as the average of the logarithmic values (n=3) of the ratio between the radioactivity in the organic and the PBS phase. Results are means±standard deviation from a minimum of two separate experiments. ^177Lu/^68Ga-labeled Pentixather, which is a known CXCR4-directed endoradiotherapeutic agent, is used as reference molecule.

[3] = Functional stability assay in human plasma
Outline: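 EPI-X4 derivatives at 20 μM final in pooled human plasma or whole blood (EDTA), incubated at 37 °C with shaking for 2 or 8 h. Residual activity was measured by 12G5-APC antibody competition on CXCR4 and compared with a non-incubated t=0 sample. Blood samples were centrifuged to remove cells before the competition assay.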

[4] = Stability assay in human S9 liver fractions; settings: with cofactors
Procedure: Further, the stability of peptides in human S9 liver fractions (in the presence of cofactors) was tested (FIG. 12). […] To simulate and predict hepatic metabolic clearance, peptides were added to human S9 liver fractions. […] For each peptide, three independent experiments were performed.
Stability assay in human S9 liver fractions. Pooled human liver S9 fractions were obtained from Thermo Fisher Scientific at a total protein concentration of 20 mg/ml. Fractions were stored in 25 μl aliquots at −80° C. For stability experiments, they were diluted to a final concentration of 0.5 mg/ml in Tris buffer. Cofactors (or buffer) were added immediately before start of the experiment (NADPH: 1 mM, UDPGA: 0.5 mM, GSH: 2.5 mM, PAPS: 0.05 mg/ml, Sigma Aldrich). The reaction was started by adding peptides or compounds at a concentration of 20 μM to the mixture and gentle agitation at 37° C. Determination of enzymatic stability was performed as described for plasma.

[5] = tested on: CXCL12-induced AKT signaling; experiment: ERK/AKT signaling assay in SupT1 cells: AKT phosphorylation; assay type: cell-based; settings: 10 μM
Outline: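 SupT1 cells in 1% FCS medium preincubated 15 min at 37 °C with compound, then stimulated 2 min with CXCL12 (100 ng/ml final). PFA-fixed, methanol-permeabilized cells stained for phospho-ERK1/2 (Tyr204/Tyr187) or phospho-AKT (Ser473) and read by flow cytometry; two or three independent experiments in triplicate.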

[6] = tested on: CXCL12-induced ERK signaling; experiment: ERK/AKT signaling assay in SupT1 cells: ERK phosphorylation; assay type: cell-based; settings: 1 μM
Procedure: Third, the activity of the claimed EPI-X4 derivatives was tested by the effect on CXCL12/CXCR4-mediated ERK (Extracellular-signal Regulated Kinases) and AKT (a serine/threonine-protein kinase) signaling (FIG. 3). In that assay CXCR4 expressing cells are stimulated with the CXCR4 chemokine-ligand CXCL12, which subsequently leads to phosphorylation of ERK and AKT. Preincubation of cells with CXCR4-antagonists blocks those pathways. […] Two or three independent experiments were carried out in triplicates for each peptide in each assay. The error bars refer to the standard deviation.
ERK/AKT signaling assay. CXCL12 induced ERK and AKT phosphorylation was determined in SupT1 cells. For this, 100,000 cells were seeded per well in a 96-V well plate in 100 μl medium supplemented with 1% FCS. Cells were incubated for 2 hours at 37° C. before 5 μl of compounds were added. After 15 min incubation at 37° C. cells were stimulated by adding 5 μl CXCL12 diluted in PBS to reach a final concentration of 100 ng/ml. Cells were further incubated for 2 min before the reaction was stopped by adding 20 μl of 10% PFA. Cells were fixed for 15 min at 4° C. before PFA was removed and cells permeabilized by adding 100 μl ice cold methanol. After 15 min at 4° C. the methanol was removed, cells were washed and 30 μl primary antibody was added (phospho-p44/42 MAPK (Erk1) (Tyr204)/(Erk2) (Tyr187) (D1H6G) mouse mAb #5726; phosphor-Akt (Ser473) (193H12) rabbit mAb #4058 Cell Signaling) for 1 hour at 4° C. After the antibody was removed and cells were washed secondary antibody was added for 30 min. Cells were washed afterwards and subsequently analyzed by flow cytometry.

[7] = target: T2, CXC chemokine receptor type 4 (CXCR4) (human, UniProt P61073 1-352); experiment: cell-based or functional assay
[8] = target: T2, CXC chemokine receptor type 4 (CXCR4); experiment: antibody competition assay
Procedure: Antibody competition assay. Competition of compounds with antibody binding was performed on SupT1 cells. For that cells were washed in PBS containing 1% FCS and 50,000 cells were then seeded per well in a 96 V-well plate. Buffer was removed and plates were precooled at 4° C. […] The antibody was used at a concentration closed to its determined Kd. 15 μl compounds were then added to the cells and 15 μl antibody immediately afterwards. Plates were incubated at 4° C. in the dark for 2 hours. Afterwards cells were washed twice with PBS containing 1% FCS and fixed with 2% PFA. Antibody binding was analyzed by flow cytometry (FACS CytoFLEX; Beckman Coulter®).

[9] = target: T1, CXC chemokine receptor type 4 (CXCR4); experiment: 12G5 antibody competition

Molecule | Radiochemical purity ([1]; time point 0 h) [%] | Radiochemical purity ([1]; time point 1 h) [%] | Radiochemical purity ([1]; time point 2 h) [%] | Radiochemical purity ([1]; time point 4 h) [%] | Radiochemical purity ([1]; time point 24 h) [%] | log DO/PBS pH7.4 [2] | IC50, HIV inhibition assay [7] | IC50 [8] [nM] | also measured
[^177Lu]Lu-DOTA-K-JM#122: ^177Lu-labeled DOTA-K-JM #122 (SEQ ID NO.: 102) (ILRWSRKLPSVSK(DOTA); also: 177Lu complex of DOTA) | 97 ± 0 | 97 ± 0 | 96 ± 1 | 96 ± 1 | 78 ± 1 | −3.23 ± 0.23 | – | – | Radiochemical purity ([1]; time point 24 h, listed as [^177Lu]Lu-DOTA-K-JM #207): 78±1%; log DO/PBS pH7.4 ([2]; listed as [^177Lu]Lu-DOTA-K-JM #122): −3.23±0.23
[^177Lu]Lu-DOTA-JM#118: ^177Lu-labeled DOTA-JM #118 (SEQ ID NO.: 166) (ILRWSRK(DOTA)-NH2; also: 177Lu complex of DOTA) | 99 ± 0 | 98 ± 0 | 97 ± 1 | 95 ± 1 | 80 ± 2 | −3.12 ± 0.43 | – | – | Radiochemical purity ([1]; time point 24 h, listed as [^177Lu]Lu-DOTA-JM #118): 80±2%
[^177Lu]Lu-DOTA-K-JM#21: ^177Lu-labeled DOTA-K-JM #21 (SEQ ID NO.: 101) (ILRWSRKLPCVSK(DOTA); also: 177Lu chelated) | – | 93 ± 3 | 92 ± 6 | 90 ± 7 | 62 ± 13 | −1.91 ± 0.24 | – | – | –
[^177Lu]Lu-DOTA-K-JM#29: ^177Lu-labeled DOTA-K-JM #29 (SEQ ID NO.: 165) ([dL]LRWSRKMPCVSK(DOTA); also: 177Lu complex of DOTA) | 98 ± 1 | 96 ± 3 | 92 ± 9 | 90 ± 9 | – | −1.49 ± 0.29 | – | – | –
CC[C@@H](C)[C@@H](N)C(=O)N[C@@H](CC(C)C)C(=O)N[C@@H](CCCNC(=N)N)C(=O)N[C@@H](Cc1c[nH]c2ccccc12)C(=O)N[C@@H](CO)C(=O)N[C@@H](CCCNC(=N)N)C(=O)N[C@@H](CCCCN)C(N)=O [JM #173, d-ILRWSRK-NH2] (H-[dI]LRWSRK-NH2) | – | – | – | – | – | – | – | – | remaining (relative) activity after 8 hours of plasma incubation ([3]; human plasma, 8 hours): 100%; functional stability in human plasma (in words) ([3]; human, plasma): completely resistant to plasma enzymes; remaining activity in human S9 liver fractions after 8 hours ([4]; 8 hours): about 14%
CC[C@H](C)[C@H](N)C(=O)N[C@H](C(=O)N[C@@H](CCCNC(=N)N)C(=O)N[C@@H](Cc1c[nH]c2ccccc12)C(=O)N[C@@H](CO)C(=O)N[C@@H](CCCCN)C(=O)N[C@@H](CCCCN)C(=O)N[C@H](C(=O)N1CCC[C@H]1C(=O)N[C@@H](CS)C(=O)N[C@H](C(=O)N[C@@H](CO)C(=O)O)C(C)C)C(C)C)C(C)C [WSC02, reference compound] (H-IVRWSKKVPCVS-OH; C-terminus assumed) | – | – | – | – | – | – | – | – | reduction of CXCL12-induced AKT signaling [5]: about 50%; reduction of CXCL12-induced ERK signaling [6]: 20%; remaining (relative) activity after 2 hours of plasma incubation ([3]; human plasma, 2 hours): completely inactive; remaining activity in human S9 liver fractions after 2 hours ([4]; 2 hours): readily inactivated by liver enzymes
B1 | – | – | – | – | – | – | > 150 nM | < 25 | IC50 [9]: 31 nM
B2 | – | – | – | – | – | – | > 150 nM | < 25 | –
B3 | – | – | – | – | – | – | 50 nM to 150 nM (2×) and > 150 nM | < 25 | –
